Experimental data: patent US20210263001A1, “IMMOBILIZED ENZYMES AND MICROSOMES ON MAGNETIC SCAFFOLDS” (ZYMtronix Catalytic Systems, Inc., priority 2018, published 2021)

Molecular target: T1, UGT1A6 (Homo sapiens, UniProt P19224)
T1 construct: purchased Corning 456416
T1 sequence (P19224 27-532): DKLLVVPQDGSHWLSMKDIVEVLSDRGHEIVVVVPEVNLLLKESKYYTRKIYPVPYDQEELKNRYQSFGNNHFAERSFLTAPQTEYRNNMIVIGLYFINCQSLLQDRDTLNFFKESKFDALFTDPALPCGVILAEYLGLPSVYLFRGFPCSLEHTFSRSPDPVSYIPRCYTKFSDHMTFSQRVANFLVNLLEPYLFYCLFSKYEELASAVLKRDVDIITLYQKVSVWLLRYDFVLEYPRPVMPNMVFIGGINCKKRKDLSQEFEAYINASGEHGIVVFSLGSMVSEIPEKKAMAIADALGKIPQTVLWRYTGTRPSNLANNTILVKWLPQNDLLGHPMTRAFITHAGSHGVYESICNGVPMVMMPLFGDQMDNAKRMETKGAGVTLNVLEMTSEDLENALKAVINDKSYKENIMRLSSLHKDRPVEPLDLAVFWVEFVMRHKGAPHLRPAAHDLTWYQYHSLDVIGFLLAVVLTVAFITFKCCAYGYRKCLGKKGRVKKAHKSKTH
Experiment: Activity of UGT1A6 immobilized on magnetite powder, BioVision fluorometric UGT activity assay (Example 10)
Type: biochemical
Conditions: 2 hours, 37° C., 500 μl reaction
Method: The UGT1A6 stock (5 mg/mL) was rapidly thawed in a […] and diluted in cold 50 mM Tris pH 7.0 to a final concentration of 25 μg/ml. 500 μl of UGT1A6 solution was added to 5 mg of magnetite powder and incubated for 1 hour at 4° C. with shaking. The immobilization yield was quantified by the Bradford method (Bradford reagent: Quick Start™ Bradford 1× Dye Reagent #5000205 from BioRad) by comparing it to UGT1A6 enzyme standards.
A fluorometric assay (BioVision UGT Activity Assay/Ligand Screening Kit, Cat #K692) was used to measure the activity of the free and immobilized UGT1A6. The assay utilizes a highly fluorescent UGT substrate and measures UGT activity by tracking the drop in fluorescence emission as the substrate is converted into a non-fluorescent glucuronide. UGT specific activity is calculated by comparing the fluorescence loss versus a control reaction performed in the absence of the required cofactor UDPGA. Duplicate reactions were performed in 0.5 dram glass vials (VWR® Vials, Borosilicate Glass, with Phenolic Screw Cap) with 500 μl reaction volumes at 37° C. with shaking for 2 hours. UGT1A6 reactions contained BioVision UGT Assay buffer with Alamethicin, BioVision UGT subtrate and the UDPGA cofactor. […] The product was detected by fluorescence at Ex/Em=415/502 nm and quantitated by comparing the drop in fluorescence to a standard curve of UGT substrate fluorescence.

B1: free UGT: Non-immobilized Corning Supersomes Human UGT1A6 enzyme (protein, UniProt P19224 27-532, looked up)
UDP-glucuronosyltransferase …: T1 sequence (P19224 27-532)
modifications: Supersomes microsomal preparation
notes: Non-immobilized Corning Supersomes Human UGT1A6 enzyme
  BioVision UGT Activity Assay substrate consumed (average): 0.58 ± 0.39 nmol
